These are literature values, as cited in PMC6165679.

The Ki is the equilibrium dissociation constant of an inhibitor or competing ligand from its target. By Kd is commonly meant the constant that tells how readily two partners part at equilibrium.

Data set [1] deals with APJ receptor (Homo sapiens) (UniProt P35414).
For data set [2] the target is unchanged. Briefly: competition binding.

Sequence of UniProt P35414 (P35414 whole entry): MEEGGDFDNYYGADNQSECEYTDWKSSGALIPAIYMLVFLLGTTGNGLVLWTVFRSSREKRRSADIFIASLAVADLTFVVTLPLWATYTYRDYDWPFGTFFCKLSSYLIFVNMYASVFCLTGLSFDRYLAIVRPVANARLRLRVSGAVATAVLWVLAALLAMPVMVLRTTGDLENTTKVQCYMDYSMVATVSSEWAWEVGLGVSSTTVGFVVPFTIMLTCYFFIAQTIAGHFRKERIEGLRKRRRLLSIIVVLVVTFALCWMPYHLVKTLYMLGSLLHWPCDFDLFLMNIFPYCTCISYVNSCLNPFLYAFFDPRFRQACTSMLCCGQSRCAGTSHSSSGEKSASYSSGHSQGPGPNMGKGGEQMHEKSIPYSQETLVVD

On to cyclo(1–6)CRPRLC-KH-cyclo(9–14)CRPRLC, for which the Ki in data set [1] is 82 nM. The Kd in data set [2] was 3200 nM.
